Assay results: paper PMC7797054, “Structural basis for inhibition of the type I-F CRISPR–Cas surveillance complex by AcrIF4, AcrIF7 and AcrIF14” (Nucleic Acids Research, 2020)

Tests used:
[1] = target: type I-F CRISPR-Cas surveillance complex (the Csy complex) from Pseudomonas aeruginosa PA14 (Pseudomonas aeruginosa) (UniProt Q02ML9); assay: cryo-EM structure; Csy incubated with AcrIF protein at molar ratio 1:10 for 1 h on ice, SEC in 20 mM HEPES pH 7.5, 100 mM KCl, 5% glycerol, 1 mM TCEP; 0.5 mg/ml on UltrAuFoil grids, Titan Krios 300 kV
[2] = target: the molecule itself; assay: as above

type I-F CRISPR-Cas surveillance complex (the Csy complex) from Pseudomonas aeruginosa PA14 (Pseudomonas aeruginosa), sequence (Q02ML9 whole entry, chain 1 of 3): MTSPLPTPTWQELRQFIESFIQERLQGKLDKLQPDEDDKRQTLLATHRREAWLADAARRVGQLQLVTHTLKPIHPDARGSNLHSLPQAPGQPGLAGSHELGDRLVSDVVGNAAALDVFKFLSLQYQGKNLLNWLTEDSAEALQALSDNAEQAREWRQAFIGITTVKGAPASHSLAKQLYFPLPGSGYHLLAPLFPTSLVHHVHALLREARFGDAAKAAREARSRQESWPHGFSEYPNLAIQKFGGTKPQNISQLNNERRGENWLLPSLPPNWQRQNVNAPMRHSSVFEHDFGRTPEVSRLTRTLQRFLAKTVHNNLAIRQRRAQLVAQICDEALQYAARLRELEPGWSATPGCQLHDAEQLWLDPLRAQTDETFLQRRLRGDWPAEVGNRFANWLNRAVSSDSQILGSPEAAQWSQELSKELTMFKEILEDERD
type I-F CRISPR-Cas surveillance complex (the Csy complex) from Pseudomonas aeruginosa PA14 (Pseudomonas aeruginosa), sequence (Q02MM0 whole entry, chain 2 of 3, further chain): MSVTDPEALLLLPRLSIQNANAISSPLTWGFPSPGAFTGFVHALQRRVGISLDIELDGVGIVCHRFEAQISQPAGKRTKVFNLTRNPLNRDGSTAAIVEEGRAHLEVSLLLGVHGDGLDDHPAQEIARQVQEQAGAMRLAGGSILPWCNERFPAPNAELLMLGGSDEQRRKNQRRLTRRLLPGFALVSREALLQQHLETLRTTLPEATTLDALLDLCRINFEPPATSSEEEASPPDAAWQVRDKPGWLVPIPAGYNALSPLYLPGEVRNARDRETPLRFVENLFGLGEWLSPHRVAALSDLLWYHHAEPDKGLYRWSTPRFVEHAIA
type I-F CRISPR-Cas surveillance complex (the Csy complex) from Pseudomonas aeruginosa PA14 (Pseudomonas aeruginosa), sequence (Q02MM2 whole entry, chain 4 of 3, further chain): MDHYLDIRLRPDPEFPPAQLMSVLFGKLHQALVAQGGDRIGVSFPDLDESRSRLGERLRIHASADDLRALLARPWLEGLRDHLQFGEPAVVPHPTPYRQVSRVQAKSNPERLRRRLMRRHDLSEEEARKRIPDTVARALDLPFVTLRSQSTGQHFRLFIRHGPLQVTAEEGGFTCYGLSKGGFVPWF

Q: How did the stoichiometry N [1] turn out when AcrIF14 (natural protein) was run?
A: Its stoichiometry N is 2.

B1: Cas7f subunit of the Csy complex (natural protein, Pseudomonas aeruginosa)
chain: MSKPILSTASVLAFERKLDPSDALMSAGAWAQRDASQEWPAVTVREKSVRGTISNRLKTKDRDPAKLDASIQSPNLQTVDVANLPSDADTLKVRFTLRVLGGAGTPSACNDAAYRDKLLQTVATYVNDQGFAELARRYAHNLANARFLWRNRVGAEAVEVRINHIRQGEVARAWRFDALAIGLRDFKADAELDALAELIASGLSGSGHVLLEVVAFARIGDGQEVFPSQELILDKGDKKGQKSKTLYSVRDAAAIHSQKIGNALRTIDTWYPDEDGLGPIAVEPYGSVTSQGKAYRQPKQKLDFYTLLDNWVLRDEAPAVEQQHYVIANLIRGGVFGEAEEK
notes: Cas7f (Csy3) of Pseudomonas aeruginosa PA14; Stood in the assay as a subunit (six copies) of the whole Csy complex; It may carry the His tag of the complex (surmise); also called Cas7.1f-Cas7.6f; Cas7.4f; source: E. coli BL21 (DE3), co-expressed and purified as part of the Csy complex (HisTrap HP, HiTrap Q, Superdex 200)
Q: With B1 as the molecule, how does the “stoichiometry N” value [2] read?
A: The value was 6.
